Measured values published in US20230287125A1 (LEPU BIOPHARMA, published 2023).

Assays:
rat PD-L1 protein = rat PD-L1 protein (rat, UniProt D4AE25 19-239); assay: ELISA, coated rat PD-L1
[1] = target: T1, human PD-L1-his tag protein (human, UniProt Q9NZQ7 19-238); assay: SPR (Biacore T200), mAb captured on Protein A chip, PD-L1-his injected
T1 construct: also called human PD-L1-His protein; recombinant PD-L1 protein; not shown: his tag
Experimental: A serial dilution of human PD-L1-his tag protein was injected over captured antibody for 2 mins at a flow rate of 30 μl/min. The antigen was allowed to dissociate for 480-1500 s. All the experiment were carried out on a Biacore T200. Data analysis was carried out using Biacore T200 evaluation software.

[2] = target: T2, human PD-L1 over-expressed on CHOK1 cells (human, UniProt Q9NZQ7 19-290); assay: flow cytometry (MFI) on PDL1-CHOK1 cells; upper right panel (with the Hu67F3G7 antibodies)
T2 construct: whole, on cells; also called PDL1-CHOK1 cells
T2 sequence (Q9NZQ7 19-290): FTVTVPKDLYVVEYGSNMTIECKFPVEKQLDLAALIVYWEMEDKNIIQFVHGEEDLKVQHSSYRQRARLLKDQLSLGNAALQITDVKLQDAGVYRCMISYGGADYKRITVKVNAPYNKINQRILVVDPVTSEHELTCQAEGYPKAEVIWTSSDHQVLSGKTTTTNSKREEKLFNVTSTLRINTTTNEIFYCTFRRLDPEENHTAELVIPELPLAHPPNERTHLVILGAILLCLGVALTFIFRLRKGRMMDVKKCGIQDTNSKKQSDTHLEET
Experimental: To evaluate the antigen binding property, the humanized antibodies were analyzed for their binding to PD-L1 overexpressed on mammalian cells by FACS. Briefly, PDL1-CHOK1 cells were firstly incubated with 3-fold serious diluted humanized antibodies starting at 15 μg/ml at 4° C. for 40 mins. After washed by PBS, the Alexa Fluor® 647 AffiniPure Goat Anti-Human IgG (H+L) antibody was added to each well and incubated at 4° C. for 30 mins. The MFI of Alexa Fluor® 647 was evaluated by FACSCanto.

human PD-L1-Fc protein [3] = target: T3, human PD-L1-Fc protein (human, UniProt Q9NZQ7 19-238); assay: ELISA, antibody titrated on coated human PD-L1-Fc, OD 450nm; upper right panel (with Hu67F3G7-7 to -12)
T3 construct: coating antigen of the ELISAs; also called rhPD-L1-Fc; not shown: Fc
T3 sequence (Q9NZQ7 19-238 limits assumed): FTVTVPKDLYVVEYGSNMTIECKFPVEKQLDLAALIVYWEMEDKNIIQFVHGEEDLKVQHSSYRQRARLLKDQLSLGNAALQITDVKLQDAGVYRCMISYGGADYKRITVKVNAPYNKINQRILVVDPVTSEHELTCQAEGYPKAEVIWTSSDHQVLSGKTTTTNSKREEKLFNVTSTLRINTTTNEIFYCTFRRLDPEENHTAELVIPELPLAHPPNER
Experimental: (§1) To evaluate antigen binding activity, the humanized antibodies were subjected to ELISA test. Briefly, microtiter plates were coated with human PD-L1-Fc protein at 0.5 μg/ml in PBS, 100 μl/well at 4° C. overnight, then blocked with 200 μl/well of 1% BSA. Three-fold dilutions of humanized antibodies starting from 10 μg/ml were added to each well and incubated for 1 hour at 37° C. The plates were washed with PBS/Tween and then incubated with mouse-anti-human IgG Fab antibody conjugated with Horse Radish Peroxidase (HRP) for 1 hour at 37° C. After washing, the plates were developed with TMB substrate and analyzed by spectrophotometer at OD 450 nm.

human PD-L1-Fc protein [4] = target: T3, human PD-L1-Fc protein; assay: receptor blocking ELISA: coated human PD-L1-Fc, blocked ligand biotin-labeled human CD80-Fc (Bio-CD80), OD 450nm; middle left panel (with Hu67F3G7-5)
Experimental: (§2) Briefly, microtiter plates were coated with human PD-L1-Fc protein at 0.5 μg/ml in PBS, 100 μl/well at 4° C. overnight, then blocked with 150 μl/well of 1% BSA at 37° C. for 2 hours. […] The plates were washed with PBS/Tween and then incubated with Streptavidin-HRP for 10 mins at 37° C. After washing, the plates were developed with TMB substrate and analyzed by spectrophotometer at OD 450 nm.

human PD-L1-Fc protein [5] = target: T3, human PD-L1-Fc protein; assay: receptor blocking ELISA: coated human PD-L1-Fc, blocked ligand biotin-labeled human CD80-Fc (Bio-CD80), OD 450nm; middle right panel (with Hu67F3G7-7)
Experimental: as §2

human PD-L1-Fc protein [6] = target: T3, human PD-L1-Fc protein; assay: ELISA, antibody titrated on coated human PD-L1-Fc, OD 450nm; lower left panel (with Hu67F3G7-13 to -18); the table row is headed 'IC50' on the sheet although the curves rise
Experimental: as §1

T1 sequence (Q9NZQ7 19-238 limits assumed): as above
Chain of rat PD-L1 protein (D4AE25 entry or part of it limits assumed): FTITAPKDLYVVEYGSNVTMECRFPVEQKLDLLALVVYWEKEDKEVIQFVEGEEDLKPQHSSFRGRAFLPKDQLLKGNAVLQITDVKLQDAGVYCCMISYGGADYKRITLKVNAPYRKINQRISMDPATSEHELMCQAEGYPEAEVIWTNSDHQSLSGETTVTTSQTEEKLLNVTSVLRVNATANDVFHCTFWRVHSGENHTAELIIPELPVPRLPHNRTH

Kd [1]: 24.4 pM
koff [1]: 6.19e-05 s⁻¹
kon [1]: 2.54e+06 M⁻¹ s⁻¹
EC50 [2]: 57.7 pM
EC50 (human PD-L1-Fc protein [3]): 0.0129 µg/mL
IC50 (human PD-L1-Fc protein [4]): 0.274 µg/mL
IC50 (human PD-L1-Fc protein [5]): 0.283 µg/mL
EC50 (human PD-L1-Fc protein [6]): 0.0157 µg/mL
B1: 67F3G7 chimeric mAb (antibody, V domains shown)
VH: QVKLLQSGAALVKPGASVKMSCKASGYIFTDFWVSWVKQSHEKSLEWIGEIYPNSGVSRYNEKFKGRATMTVDKSTSTAYLELSRLTSEDSAIYYCTKYFGYTYWFGYWGQGTLVTVSS
VL: DTVLTQSPALAVSLGQRITISCRASKSVSTYMHWYQQRSGLQPKLLIYSASHLESGVPSRFSGSGSGTDFTLTIDPVEADDIANYYCQQSNELPVTFGSGTKLEIK
notes: chimeric mAb of the hybridoma clone; also called 67F3G7-chimera
binding result (rat PD-L1 protein): no binding (tested: dilutions starting from 10 µg/ml)
